Results on 3 substances are retold here after publication PMC3120127.

What all share (test): split reporter
The target of assay [1] is N-FLUC-PFE1350c (amino acids 9-135) (P. falciparum).
In assay [2] the target is N-FLUC-PfMyb2 fragment #13 (P. falciparum).
Assay [3] addresses N-FLUC negative control (firefly).

A value given as a limit tells only on which side of the number the result lay.

Consider “PFC0365w-C-FLUC (amino acids 45-205) (domain or fragment)”, for which the fold luciferase signal over N-FLUC-PFE1350c plus the C-FLUC negative control in assay [1] was less than 2.3 fold. Also, in assay [2], the fold luciferase signal over the N-FLUC fusion plus the C-FLUC negative control is 36 fold.
For “PFL1705w-C-FLUC (amino acids 95-213) (domain or fragment)”, the fold luciferase signal over N-FLUC-PFE1350c plus the C-FLUC negative control in assay [1] was less than 2.3 fold.
Turning to “PFC0255c-C-FLUC (amino acids 4-137) (domain or fragment)”, in assay [3], the fold luciferase signal over N-FLUC-PFE1350c plus the C-FLUC negative control was less than 2.3 fold. In addition, in assay [1], the fold luciferase signal over the N-FLUC fusion plus the C-FLUC negative control is greater than 600 fold.
